B1: TPR t1 (parent)
chain: GACCAAUCUGCCCUCAGAGCUCGAGAACAUCUUCGGAUGCAGAGGAGGCAGGCUUCGGUGGCGCGAUAGCGCCAACGUCCUCAACCUCCAAUGCAUCCCACCACAUGAUGAUGCCUGAAGAGCCUUGGUUUUUUG

Variants of: B1
Test: polymerase ribozyme fitness, log enrichment relative to wild type (log ratio); higher = more active; in vitro selection for triplet polymerase activity
Outline: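 Only genotypes with ≥10 input reads and ≥1 read per output were kept after Illumina sequencing of input and output libraries. These libraries were PCR-built, transcribed mutants of each subunit of a heterodimeric triplet polymerase ribozyme, each put through one triplicate in vitro selection round with frozen incubation at −7 °C, gel excision of extended constructs, streptavidin-bead capture and RT-PCR. Fitness is a logarithmic ratio of genotype enrichment to wild-type enrichment, from inverse-variance-weighted replicate averages, with the logarithm in base 2.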

In order of falling “polymerase ribozyme fitness (log ratio)” value:
1. C11A G69U G120A U132A  2
2. C11G C124G  1.42
3. C11G C49A G61A  1.07
4. C11G C64U A74U C123U  0.798
5. C11A C85U G120U  0.755
6. C11A G71A A91G A121U  0.674
7. C11G A111G G120C G127U  0.661
8. C11G A119G  0.484
9. C11A C40U G45A G61A U96G C124A  0.365
10. C11G A37U C70A A83C A121C  0.293
11. C11G A84U G122A  0.157
12. C11G C101U  0.142
13. C11G C56U  0.107
14. C11G C53U C82U  0.05
15. C11G G42A A121C  0.0348
16. C11A G120U  0.0217
17. C11G G36C G77A  -0.0394
18. C11A G69U  -0.0927
19. C11A U21G A41G A121U  -0.0986
20. C11G C79U  -0.0995
21. C11G C94U  -0.128
22. C11G C72G  -0.147
23. C11G C15A U106A G117U G127U  -0.216
24. C11G C49A C64U  -0.24
25. C11G C62A U106A  -0.272
26. C11G C15A  -0.327
27. C11G G44C C72G C88U C101U  -0.537
28. C11G C73U U96A  -0.543
29. C11G A29G C72G C123A  -0.598
30. C11G C49U C72G  -0.598
31. C11G C82U G117A  -0.654
32. C11G C20U  -0.656
33. C11G C13G C56U G93A  -0.689
34. C11A U21G G120U C123A  -0.701
35. C11G A16G G60A C88U C124A  -0.731
36. C11G G39A C53G  -0.759
37. C11G G36A C73U  -0.782
38. C11A C115U G122U  -0.883
39. C11G G36U C56G C82U  -0.948
40. C11G A37C A41C C101A A121C G122U  -1.01
41. C11G C12G  -1.01
42. C11G C64U C72A C89U  -1.01
43. C11G C114A  -1.06
44. C11A U32C A37C  -1.07
45. C11G C15U C56U A83U  -1.12
46. C11A C73U  -1.2
47. C11G G42U U59A G60U  -1.24
48. C11G C15U G45C  -1.34
49. C11G C15U G45A C73A A83U  -1.42
50. C11G C73U C114U  -1.42
51. C11G C104A  -1.42
52. C11G C70A A95C U112A U132C  -1.46
53. C11G G42A C72A C88U  -1.46
54. C11A C62U  -1.47
55. C11G C73G C85A A111G  -1.47
56. C11A C56A  -1.49
57. C11A U132C  -1.49
58. C11G A27G  -1.52
59. C11A G57U  -1.56
60. C11A C79U  -1.59
61. C11A U59A  -1.59
62. C11A G52C A74C A111C  -1.71
63. C11G C40A C72U C101U C104U  -1.72
64. C11G C13G G45A G117A  -1.92
65. C11A C62G  -2.04
66. C11A G45U A84G C101U G122A  -2.1
67. C11G A105U  -2.2
68. C11A G52A C70U A90G  -2.22
69. C11A G36C  -2.32
70. C11A U126A U129C  -2.33
71. C11A U38C  -2.34
72. C11A G48C G71A U87G U106G A121U  -2.38
73. C11A C70U  -2.4
74. C11A C85U U133G  -2.41
75. C11A U81C A90G  -2.45
76. C11A C89U G135U  -2.46
77. C11A G71C G113A  -2.46
78. C11G G39A C49G C53U G69A G120C  -2.46
79. C11A G45U  -2.48
80. C11A G58C C72U G122A U125A  -2.52
81. C11A U38G C56U C86G U112C  -2.57
82. C11A G47A G77A  -2.62
83. C11G A24G C49G U59G  -2.66
84. C11G C13U A84U A91U G93C  -2.67
85. C11G C99U  -2.71
86. C11A U81A  -2.74
87. C11A G39U C86U C104U G110A  -2.77
88. C11A G69U C70U  -2.77
89. C11G A74U A108G  -2.79
90. C11A C62A  -2.86
91. C11A C15U G48U A90G U112A  -2.88
92. C11A G113C  -2.93
93. C11A G48A C62U G128C  -3
94. C11G C73G C101U U112C G117C  -3.04
95. C11A C40G  -3.12
96. C11A C53G C64U C97U C101G G135C  -3.13
97. C11A C70G  -3.13
98. C11A C101G  -3.13
99. C11A C72U A75G U129A  -3.18
100. C11A G117A  -3.3
101. C11G C98A  -3.33
102. C11G A66U U106G  -3.36
103. C11A G51U C85U G120C  -3.38
104. C11A G93C C102A  -3.43
105. C11G G17A  -3.46
106. C11A G117U  -3.48
107. C11A G69A C86U  -3.51
108. C11G A46U G60U A74C A121U  -3.52
109. C11A G42U C70U  -3.6
110. C11G A24G A37C G42A U92C A118U  -3.62
111. C11G C15U C20U C70G  -3.71
112. C11G C22G G36A A83C  -3.71
113. C11A G47A C62A  -3.74
114. C11A C70U C76A  -3.78
115. C11G A29G A43C C49A A74C C85G G113A G135U  -3.78
116. C11G A27U C49A G61C A75U A84G  -3.81
117. C11G G17A C124U  -3.84
118. C11A G71A G77A C82G  -3.86
119. C11A C13G C62G  -3.87
120. C11G C12U A50G G71A U133G  -4.01
121. C11A G36A G61U G128A  -4.02
122. C11G A18U A46U G57A  -4.09
123. C11A G69A  -4.25
124. C11G C64U C114G C115A C123G C124A  -4.26
125. C11G G39U C49G C64U G117C  -4.26
126. C11A G42U G61U C114G U130A U132G  -4.29
127. C11A C28G G44A C70U A121C  -4.42
128. C11G A29C U55G A84G G113A  -4.47
129. C11A C49A C53U A90U U126C  -4.54
130. C11G G35A A84U  -4.58
131. C11A C13U G19A C56G C72U  -4.6
132. C11A C13G U32C A50U G93U U96G U112A U131G  -4.75
133. C11G C31U U55C A90G  -4.94
134. C11G C31A  -4.96
135. C11A G19C G57U  -5.03
136. C11A C22U  -5.15
137. C11A C40U G48C C79U C102U  -5.15
138. C11G C22A A26C C102A  -5.19
139. C11G G35U C82A A105C C123A C124A  -5.28
140. C11A C99A C123A  -5.29
141. C11G C20U C22A G39C  -5.35
142. C11A G52A G110U G135U  -5.37
143. C11G C22G G36A C70U A83C  -5.41
144. C11G C76A U112A G117C G128C U134G  -5.47
145. C11G C31U G52A U96G G120C  -5.5
146. C11G C49A U81G G93U C101G U109A  -5.65
147. C11G C70G G77U A103C A121C U132A  -5.85
148. C11G C64A  -5.88
149. C11G A41U G47C U59A A66U  -6.01
150. C11G G35C G45U G71A U81A U112A U125A  -6.05
151. C11A C15A A37G C40A G120U  -6.11
152. C11G C15A G19U G69C C98A C114U  -6.19
153. C11G A46U C56U C70A C85A C104U  -6.28
154. C11A G107C G113A C124A  -6.29
155. C11G A26C G77U U81A C97U G113A  -6.37
156. C11G G36U G63A C98G  -6.37
157. C11G A27G G39U G107U A121G U125G  -6.41
158. C11G C34G C49U U106C C115G C124G  -6.56
159. C11A U109A  -6.59
160. C11G C34A G61U C62U C80G C86U G120A  -6.66
161. C11G A16C A37C G60U C89G C114G  -6.69
162. C11G A18C C49A C88G U109A  -6.8
163. C11G G25C G39A C56A U67G C72A C82A A111C  -6.95
164. C11A C56U G69A C76A C79A C124A  -7.17
165. C11A C15U C34G C62G A95U G110U G120A  -7.3
166. C11A C34G G45A C53U C70G C101A U106A G117C  -7.32
167. C11G G17A G60A C79G A90U C99A  -7.47
